Assay results as given in US20230044380A1.

Target: T1, CD70 (UniProt P32970)
T1 sequence (looked up): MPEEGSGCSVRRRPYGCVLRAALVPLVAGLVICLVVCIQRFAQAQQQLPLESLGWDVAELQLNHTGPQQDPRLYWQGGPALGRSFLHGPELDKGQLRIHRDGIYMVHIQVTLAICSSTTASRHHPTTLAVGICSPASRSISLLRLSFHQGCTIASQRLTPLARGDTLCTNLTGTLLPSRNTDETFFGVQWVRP
Assay: cell-based or functional assay

B1: CD27.Z (CD70 CAR) (protein)
chain: ATPAPKSCPERHYWAQGKLCCQMCEPGTFLVKDCDQHRKAAQCDPCIPGVSFSPDHHTRPHCESCRHCNSGLLVRNCTITANAECACRNGWQCRDKECTECDPLPNPSLTARSSQALSPHPQPTHLPYVSEMLEARTAGHMQTLADFRQLPARTLSTHWPPQRSLCSSDFIRILVIFSGMFLVFTLAGALFLHQRRKYRSNKGESPVEPAEPCRYSCPREEEGSTIPIQEDYRKPEPACSPRVKFSRSADAPAYQQGQNQLYNELNLGRREEYDVLDKRRGRDPEMGGKPRRKNPQEGLYNELQKDKMAEAYSEIGMKGERRRGKGHDGLYQGLSTATKDTYDALHMQALPPR
A percentage of CD107a positive T cells in CD8 positive T cells; CD27 CAR + LACO (A40C.28) T cells stimulated by 786-O (CD70 + + +) of 27.3%, a percentage of CD107a positive T cells in CD8 positive T cells; CD27 CAR + LACO (A40C.28) T cells stimulated by A498-CBG (CD70 + + +) of 22.7% and a percentage of CD107a positive T cells in CD8 positive T cells; CD27 CAR + LACO (A40C.28) T cells stimulated by A549-CBG (CD70 +) of 3.3% were found for B1 in this work. For the same binder, the percentage of CD107a positive T cells in CD8 positive T cells; CD27 CAR + LACO (A40C.28) T cells stimulated by HS766T-CBG (CD70 +) was 9.7%, the percentage of CD107a positive T cells in CD8 positive T cells; CD27 CAR + LACO (A40C.28) T cells stimulated by Jeko-1-CBG (CD70 + + +) was 34.4% and the percentage of CD107a positive T cells in CD8 positive T cells; CD27 CAR + LACO (A40C.28) T cells stimulated by OVCAR3 (CD70 +) was 6.9%. It also gave a percentage of CD107a positive T cells in CD8 positive T cells; CD27 CAR + LACO (A40C.28) T cells stimulated by PC3-CBG (CD70 + +) of 15.9%, a percentage of CD107a positive T cells in CD8 positive T cells; CD27 CAR + LACO (A40C.28) T cells stimulated by Raji-CBG (CD70 + + +) of 30.3% and a percentage of CD107a positive T cells in CD8 positive T cells; CD27 CAR + LACO (A40C.28) T cells stimulated by SKOV3-CBG (CD70 +) of 3.3%. For the same binder, the percentage of CD107a positive T cells in CD8 positive T cells; CD27 CAR + LACO (A40C.28) T cells stimulated by THP1 (CD70 + +) was 22.2%, the percentage of CD107a positive T cells in CD8 positive T cells; CD27 CAR + LACO (A40C.28) T cells stimulated by U87-CBG (CD70 + + +) was 32% and the percentage of CD107a positive T cells in CD8 positive T cells; CD27 CAR + LACO (A40C.28) T cells stimulated by U937 (CD70 + +) was 9%. It also gave a percentage of CD107a positive T cells in CD8 positive T cells; CD27 CAR T cells stimulated by 786-O (CD70 + + +) of 27.6%, a percentage of CD107a positive T cells in CD8 positive T cells; CD27 CAR T cells stimulated by A498-CBG (CD70 + + +) of 30.8% and a percentage of CD107a positive T cells in CD8 positive T cells; CD27 CAR T cells stimulated by A549-CBG (CD70 +) of 4.4%. For the same binder, the percentage of CD107a positive T cells in CD8 positive T cells; CD27 CAR T cells stimulated by HS766T-CBG (CD70 +) was 15%, the percentage of CD107a positive T cells in CD8 positive T cells; CD27 CAR T cells stimulated by Jeko-1-CBG (CD70 + + +) was 23.1% and the percentage of CD107a positive T cells in CD8 positive T cells; CD27 CAR T cells stimulated by OVCAR3 (CD70 +) was 8.8%. For the same binder, the percentage of CD107a positive T cells in CD8 positive T cells; CD27 CAR T cells stimulated by PC3-CBG (CD70 + +) was 16%, the percentage of CD107a positive T cells in CD8 positive T cells; CD27 CAR T cells stimulated by Raji-CBG (CD70 + + +) was 29.9% and the percentage of CD107a positive T cells in CD8 positive T cells; CD27 CAR T cells stimulated by SKOV3-CBG (CD70 +) was 3.2%. It also gave a percentage of CD107a positive T cells in CD8 positive T cells; CD27 CAR T cells stimulated by THP1 (CD70 + +) of 20.2%, a percentage of CD107a positive T cells in CD8 positive T cells; CD27 CAR T cells stimulated by U87-CBG (CD70 + + +) of 37.8% and a percentage of CD107a positive T cells in CD8 positive T cells; CD27 CAR T cells stimulated by U937 (CD70 + +) of 7.1%.
